Results published in publication PMC2722759 (Nature cell biology, 2008).
Like-named read-outs stand apart in the source and are kept apart here. Each block holds one molecule with its values, some of them ahead of it.

Columns and labels:
Experiment in all cases: SPR
[1] = target: Fc-tagged sFRP2 Fzl domain (mouse)
FLAG-tagged BMP1 [2] = target: T1, FLAG-tagged BMP1 (human, UniProt P13497-2 23-730)
T1 sequence (looked up): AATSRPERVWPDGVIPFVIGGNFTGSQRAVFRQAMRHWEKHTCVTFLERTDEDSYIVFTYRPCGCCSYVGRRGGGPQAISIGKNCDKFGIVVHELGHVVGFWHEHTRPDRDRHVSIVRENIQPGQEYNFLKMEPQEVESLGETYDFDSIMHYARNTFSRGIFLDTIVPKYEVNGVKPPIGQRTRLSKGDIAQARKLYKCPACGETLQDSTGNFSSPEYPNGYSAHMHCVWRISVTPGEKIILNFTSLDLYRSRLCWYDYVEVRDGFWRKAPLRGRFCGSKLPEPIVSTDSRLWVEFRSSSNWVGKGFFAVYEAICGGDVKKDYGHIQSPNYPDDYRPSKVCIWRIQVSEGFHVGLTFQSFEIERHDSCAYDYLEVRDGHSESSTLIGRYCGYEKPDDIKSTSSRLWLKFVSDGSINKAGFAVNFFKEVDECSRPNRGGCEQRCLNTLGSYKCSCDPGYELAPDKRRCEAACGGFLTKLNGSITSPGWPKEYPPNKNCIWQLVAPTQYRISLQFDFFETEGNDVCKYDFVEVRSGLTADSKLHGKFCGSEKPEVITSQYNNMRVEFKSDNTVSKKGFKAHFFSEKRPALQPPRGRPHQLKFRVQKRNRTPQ

FLAG-tagged BMP1 [3] = target: T1, FLAG-tagged BMP1; remark: listed apart in the source

Kd [1]: 8.68 nM
Molecule: FLAG-tagged BMP1 (from UniProt P13497-2 23-730) (enzyme)

Kd (FLAG-tagged BMP1 [2]): 7.13 nM
B1: His-tagged sFRP2 (natural protein, mouse, UniProt P97299 25-295, looked up)
chain: LFLFGQPDFSYKRSNCKPIPANLQLCHGIEYQNMRLPNLLGHETMKEVLEQAGAWIPLVMKQCHPDTKKFLCSLFAPVCLDDLDETIQPCHSLCVQVKDRCAPVMSAFGFPWPDMLECDRFPQDNDLCIPLASSDHLLPATEEAPKVCEACKTKNEDDNDIMETLCKNDFALKIKVKEITYINRDTKIILETKSKTIYKLNGVSERDLKKSVLWLKDSLQCTCEEMNDINAPYLVMGQKQGGELVITSVKRWQKGQREFKRISRSIRKLQC

Kd (FLAG-tagged BMP1 [3]): ~6.01 nM
B2: full-length sFRP2-Fc (Fc fusion, mouse, UniProt P97299 25-295, looked up)
chain: LFLFGQPDFSYKRSNCKPIPANLQLCHGIEYQNMRLPNLLGHETMKEVLEQAGAWIPLVMKQCHPDTKKFLCSLFAPVCLDDLDETIQPCHSLCVQVKDRCAPVMSAFGFPWPDMLECDRFPQDNDLCIPLASSDHLLPATEEAPKVCEACKTKNEDDNDIMETLCKNDFALKIKVKEITYINRDTKIILETKSKTIYKLNGVSERDLKKSVLWLKDSLQCTCEEMNDINAPYLVMGQKQGGELVITSVKRWQKGQREFKRISRSIRKLQC
